# Patent US20060020118A1
# Molecular target: human IFNAR1 (first human interferon-alpha receptor), membrane form on cells (human) (UniProt P17181)
# Assay: flow cytometry, fluoresceinated control IgG on U266 cells, no soluble hIFNAR1
# Chain of UniProt P17181 (P17181 28-557): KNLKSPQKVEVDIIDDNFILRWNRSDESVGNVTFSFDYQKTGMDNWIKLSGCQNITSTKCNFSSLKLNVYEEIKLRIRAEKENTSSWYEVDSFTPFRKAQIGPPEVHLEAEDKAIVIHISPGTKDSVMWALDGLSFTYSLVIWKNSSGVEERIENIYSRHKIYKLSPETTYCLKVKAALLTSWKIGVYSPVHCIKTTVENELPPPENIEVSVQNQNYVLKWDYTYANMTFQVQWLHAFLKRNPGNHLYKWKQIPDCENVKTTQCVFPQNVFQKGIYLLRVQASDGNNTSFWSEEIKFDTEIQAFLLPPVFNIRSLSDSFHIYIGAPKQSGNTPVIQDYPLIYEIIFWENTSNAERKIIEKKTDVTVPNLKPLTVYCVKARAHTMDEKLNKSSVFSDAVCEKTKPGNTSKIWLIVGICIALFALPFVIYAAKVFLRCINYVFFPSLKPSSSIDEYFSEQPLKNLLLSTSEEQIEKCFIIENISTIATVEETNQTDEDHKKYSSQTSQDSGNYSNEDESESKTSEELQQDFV
substance,measurement,value
fluoresceinated control IgG (antibody),Mean Fluorescence Intensity,2.99
